Assays:
human FRα on cells [1] = molecular target: T1, human FRα on cells (human, UniProt P15328 25-234); assay: apparent Kd, flow cytometry on JEG-3 cells (endogenous FRα), 24 h at 4°C
T1 construct: Transiently expressed on HEK293-6e, CHO-S or HEK293 microarray cells, or endogenous on JEG-3, HEC-1-A, IGROV-1, OVCAR-3, H2110, KB-HeLa and T-47D cells; also called human folate receptor alpha; FOLR1
Method: (§1) Briefly, cells were seeded at 50,000 cells/well in V-bottom 96-well plates and treated with antibody for 24 hours at 4° C. to prevent internalization. […] Following incubation and washing, fluorescence was detected by flow cytometry on a BD LSRFortessa™ Cell Analyzer (BD Biosciences, Franklin Lake, NJ) with 1,000 minimum events collected per well. AF647/APC-A GeoMean (fluorescence signal geometric mean, proportional to anti-Human AF647 binding) in live cell population was plotted using GraphPad Prism Version 9 (GraphPad Software, San Diego, CA).

human FRα on cells [2] = molecular target: T1, human FRα on cells; assay: apparent Kd, flow cytometry on JEG-3 cells (endogenous FRα), as in Example 16
Method: as §1

human FRα on cells [3] = molecular target: T1, human FRα on cells; assay: apparent Kd, flow cytometry on HEC-1-A cells (endogenous FRα), 24 h at 4°C
Method: as §1

[4] = molecular target: T2, recombinant His-tagged human FRα (ACROBiosystems) (human, UniProt P15328 25-233); assay: BLI (Octet RED96): antibody loaded on anti-human IgG Fc capture biosensors, His-tagged hFRα in solution. Six traces with fit lines plateau between about 0.06 and 0.36 nm during 0-400 s association and return to baseline by about 520 s. The legend prints the same globally fitted KD for all six traces (single run; the text prints only the mean of n=2).
T2 construct: also called hFRα; hFRα antigen; not shown: His tag
T2 sequence (P15328 25-233 limits assumed): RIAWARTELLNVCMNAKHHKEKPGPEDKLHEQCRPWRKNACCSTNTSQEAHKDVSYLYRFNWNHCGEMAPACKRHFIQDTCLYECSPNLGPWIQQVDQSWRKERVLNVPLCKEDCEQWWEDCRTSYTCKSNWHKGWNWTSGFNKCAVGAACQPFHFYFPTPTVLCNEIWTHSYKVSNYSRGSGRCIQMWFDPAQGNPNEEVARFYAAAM
Method: (§2) The assay buffer used was KB buffer (kinetics buffer, composed of PBS pH 7.4, 0.1% BSA, 0.02% Tween 20, 0.05% sodium azide) supplemented with 0.06% Tween 20 and in some instances also with 1% BSA. The experiment was conducted at 30° C. with a shake speed of 1000 rpm.
(§3) Data analysis was performed using Data Analysis Software 9.0 (ForteBio, Fremont CA). The reference-subtracted binding curves were globally fitted to the 1:1 interaction model to generate the binding kinetic parameters kₒₙ, koff, and the dissociation constant KD.

[5] = molecular target: T2, recombinant His-tagged human FRα …; assay: BLI (Octet RED96) as in Example 8: antibody captured, His-tagged hFRα as analyte, mean of n=2
Method: as §2, §3

[6] = molecular target: T2, recombinant His-tagged human FRα …; assay: SPR (Biacore T200): hFRα amine-coupled to CM5 chip at medium antigen density, bivalent FSA injected, 1:1 Langmuir fit, mean of n=2
Method: (§4) CM5 Series S sensor chip, Biacore™ amine coupling kit (NHS, EDC and 1 M ethanolamine), and 10 mM sodium acetate buffers were purchased from GE Healthcare Life Science (Mississauga, ON, Canada). PBS running buffer with 0.05% Tween20 (PBST) was purchased from Teknova Inc. (Hollister, CA). Recombinant human FRα was purchased from ACRObiosystems (Newark, DE).
(§5) Screening of the variants for binding to hFRα antigen was conducted in two steps: capture of hFRα onto surface, followed by injection of three to five concentrations of variant. The hFRα surface was prepared on a CM5 Series S sensor chip by standard amine coupling methods as described by the manufacturer (GE Healthcare Life Science, Mississauga, ON, Canada). The immobilization of the hFRα was performed using Biacore™ T200 immobilization wizard with an amine coupling method aiming for resonance units (RUs) ranging from 5 to 200 RUs. Using multi-cycle kinetics, three to five concentrations of a two-fold dilution series of samples starting at 300 nM with a blank buffer control were injected at 50 uL/min for 180s with a 600s dissociation phase, resulting in a set of sensorgrams with a buffer blank reference. The hFRα surface was regenerated to prepare for the next injection cycle by one pulse of 10 mM glycine/HCl pH 1.5 for 30s at 30 uL/min. Blank-subtracted sensorgrams were analyzed using Biacore™ T200 Evaluation Software v3.0. The blank-subtracted sensorgrams were then fit to the 1:1 Langmuir binding model.

[7] = molecular target: T2, recombinant His-tagged human FRα …; assay: BLI (Octet RED96): antibody on anti-human IgG Fc capture biosensor, His-tagged hFRα as analyte, 1:1 global fit, mean of n=2
Method: as §2, §3

[8] = molecular target: T2, recombinant His-tagged human FRα …; assay: SPR (Biacore T200), high antigen density; end of the range tied to v30384 by Table 8.3
Method: as §5

human FRα on cells [9] = molecular target: T1, human FRα on cells; assay: apparent Kd, flow cytometry on IGROV-1 cells (endogenous FRα), as in Example 16
Method: as §1

[10] = molecular target: T2, recombinant His-tagged human FRα …; assay: SPR (Biacore T200): hFRα amine-coupled to CM5 chip at medium-low antigen density, bivalent FSA injected, 1:1 Langmuir fit, mean of n=2
Method: as §4, §5

[11] = molecular target: T2, recombinant His-tagged human FRα …; assay: SPR (Biacore T200): hFRα amine-coupled to CM5 chip at high antigen density, bivalent FSA injected, 1:1 Langmuir fit, mean of n=2
Method: as §4, §5

human FRα on cells [12] = molecular target: T1, human FRα on cells; assay: cell-based or functional assay

T1 sequence (P15328 25-234 limits assumed): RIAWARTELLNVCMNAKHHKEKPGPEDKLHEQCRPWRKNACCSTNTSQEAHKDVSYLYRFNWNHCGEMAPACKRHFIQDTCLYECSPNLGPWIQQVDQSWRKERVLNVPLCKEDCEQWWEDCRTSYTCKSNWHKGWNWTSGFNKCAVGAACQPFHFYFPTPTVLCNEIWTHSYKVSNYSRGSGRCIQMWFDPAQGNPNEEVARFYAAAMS

B1: v30384 (antibody, human IgG1, kappa)
heavy 1: EVQLLESGGGLVQPGGSLRLSCAVSGFSLSSYGVSWVRQAPGKGLEWIGAVNSGGSAYYADSVKGRSTISRDNSKNTVYLQMNSLRAEDTAVYYCARSGSGYPMDYLAIWGQGTLVTVSSASTKGPSVFPLAPSSKSTSGGTAALGCLVKDYFPEPVTVSWNSGALTSGVHTFPAVLQSSGLYSLSSVVTVPSSSLGTQTYICNVNHKPSNTKVDKKVEPKSCDKTHTCPPCPAPELLGGPSVFLFPPKPKDTLMISRTPEVTCVVVDVSHEDPEVKFNWYVDGVEVHNAKTKPREEQYNSTYRVVSVLTVLHQDWLNGKEYKCKVSNKALPAPIEKTISKAKGQPREPQVYVYPPSRDELTKNQVSLTCLVKGFYPSDIAVEWESNGQPENNYKTTPPVLDSDGSFALVSKLTVDKSRWQQGNVFSCSVMHEALHNHYTQKSLSLSPG
heavy 2: not shown
light: DYQMTQSPSSVSASVGDRVTITCRASQSIGDWLAWYQQKPGKAPKLLIYEASTLASGVPSRFSGSGSGTDFTLTISSVQPEDAATYYCQQGYGRSNVDNIFGGGTKVEVKRTVAAPSVFIFPPSDEQLKSGTASVVCLLNNFYPREAKVQWKVDNALQSGNSQESVTEQDSKDSTYSLSSTLTLSKADYEKHKVYACEVTHQGLSSPVTKSFNRGEC
notes: Humanized full-size IgG1/kappa antibody with heterodimeric Fc (HetFc); also called humanized variant v30384; parental humanized
Human FRα on cells [1]
  Kd: 0.31 nM
Human FRα on cells [2]
  Kd: 0.5 nM
Human FRα on cells [3]
  Kd: 0.07 nM
[4]
  Kd: 109 nM
[5]
  Kd: 127 nM
[6]
  Kd: 2.58 nM
[7]
  Kd: 110 nM
[8]
  fold lower KD in FSA compared to one-armed antibody (OAA) format: 181 fold
Human FRα on cells [9]
  Kd: 1.38 nM
[10]
  Kd: 3.76 nM
[11]
  Kd: 0.79 nM
Human FRα on cells [12]
  fold increase in internalized fluorescence compared to farletuzumab; IGROV-1 cells, 6-hour incubation, 5 nM: 19.1 fold
  fold increase in internalized fluorescence compared to farletuzumab; IGROV-1 cells, 6-hour incubation, 25 nM: 6.1 fold
  fold increase in internalized fluorescence compared to farletuzumab; IGROV-1 cells, 24-hour incubation, 5 nM: 4.7 fold
  fold increase in internalized fluorescence compared to farletuzumab; IGROV-1 cells, 24-hour incubation, 25 nM: 3.9 fold
  fold increase in internalized fluorescence compared to mirvetuximab; IGROV-1 cells, 6-hour incubation, 5 nM: 2.6 fold
  fold increase in internalized fluorescence compared to mirvetuximab; IGROV-1 cells, 6-hour incubation, 25 nM: 3.3 fold
  fold increase in internalized fluorescence compared to mirvetuximab; IGROV-1 cells, 24-hour incubation, 5 nM: 1.9 fold
  fold increase in internalized fluorescence compared to mirvetuximab; IGROV-1 cells, 24-hour incubation, 25 nM: 2.1 fold

From patent US20240424125A1 (Zymeworks, published 2024)
